Paper PMC7663122, “Protein-Assisted Room-Temperature Assembly of Rigid, Immobile Holliday Junctions and Hierarchical DNA Nanostructures”

Columns and labels:
[1] = target: T1, Redβ (single-strand annealing protein) (UniProt P03698 1-261); experiment: SEC, gel and AFM; excess Redβ (ssDNA/Redβ 1:25 stated), 25 °C, 1 mM MgCl2; B1 buffer: 50 mM Tris-HCl pH 8.0, 150 mM NaCl, 1 mM MgCl2, 25 °C (sticky-end assemblies); 44mer coating and annealing at 37 °C; SEC in 100 mM Tris-HCl pH 8.0, 150 mM NaCl, 1 mM MgCl2; settings: protein: recombinant, tags: Strep-tag II, four-way junction
T1 sequence: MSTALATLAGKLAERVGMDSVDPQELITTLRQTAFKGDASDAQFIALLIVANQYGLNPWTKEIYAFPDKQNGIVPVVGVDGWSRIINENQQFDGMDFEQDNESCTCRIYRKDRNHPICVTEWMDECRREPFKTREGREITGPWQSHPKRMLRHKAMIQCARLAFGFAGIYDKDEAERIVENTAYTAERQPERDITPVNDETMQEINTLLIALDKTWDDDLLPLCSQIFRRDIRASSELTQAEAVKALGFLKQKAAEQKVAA

[2] = target: T1, Redβ (single-strand annealing protein); experiment: EMSA (agarose) and AFM; strands coated first at 37 °C, then mixed; ssDNA/Redβ 1:1 to 1:4; weak interaction, residual free ssDNA at 1:1; B1 buffer: 50 mM Tris-HCl pH 8.0, 150 mM NaCl, 1 mM MgCl2, 25 °C (sticky-end assemblies); 44mer coating and annealing at 37 °C; SEC in 100 mM Tris-HCl pH 8.0, 150 mM NaCl, 1 mM MgCl2; settings: protein: recombinant; tags: Strep-tag II; blunt-ended immobile four-way junction, 22 bp arms
[3] = target: T1, Redβ (single-strand annealing protein); experiment: EMSA (agarose), SEC and AFM; strands coated first, then mixed; ssDNA/Redβ 1:1 (incomplete) and 1:2 (saturated); B1 buffer: 50 mM Tris-HCl pH 8.0, 150 mM NaCl, 1 mM MgCl2, 25 °C (sticky-end assemblies); 44mer coating and annealing at 37 °C; SEC in 100 mM Tris-HCl pH 8.0, 150 mM NaCl, 1 mM MgCl2; settings: protein: recombinant; tags: Strep-tag II; blunt-ended immobile four-way junction, 44 bp arms
[4] = target: T1, Redβ (single-strand annealing protein); experiment: EMSA (agarose) and AFM; strands coated first, then mixed; ssDNA/Redβ 1:1 and 1:2; completely coated at 1:1, slightly increased affinity vs 44mer; B1 buffer: 50 mM Tris-HCl pH 8.0, 150 mM NaCl, 1 mM MgCl2, 25 °C (sticky-end assemblies); 44mer coating and annealing at 37 °C; SEC in 100 mM Tris-HCl pH 8.0, 150 mM NaCl, 1 mM MgCl2; settings: protein: recombinant; tags: Strep-tag II; blunt-ended immobile four-way junction, 33 bp arms

B1: S1S4 sticky-end Holliday junction (structured_DNA)
DNA 1: GATTCCTTCCGGGCGAATTTACCCCAGTGAACGCTGGTCCCCGCGGTCATGCTGAAGGCGATAGTA
DNA 2: GCGGGGACCAGCGTTCACTGGGTTATTGGGTATGACGAGCTTAGATTTGGTATATGGTCTCGACTA
DNA 3: TAGTCGAGACCATATACCAAATCTAAGCTCGTCATACCCAATAAGATGTACGTTGGCGGACAGTTACATATTGTGCGCTGCCGGTGGC
DNA 4: GCCACCGGCAGCGCACAATATGTAACTGTCCGCCAACGTACATCGTAAATTCGCCCGGAAGGAATCCCGTAACGAGGCCACATTTTTG
Question: Does B1 bind ([1]; two 3' overhangs 22 nt (strands 1 and 4))?
Answer: Result: binds

B2: 44mer Holliday junction (structured_DNA)
DNA 1: CGATGCGAAATCTGTACGCGCACCACGTGAAGGTGCTAGTCCCC
DNA 2: GAATGTGTTGATGGTTAAGTTCTGCGCGTACAGATTTCGCATCG
DNA 3: GTGTCTATCATTAGCGGCTCAAGAACTTAACCATCAACACATTC
DNA 4: GGGGACTAGCACCTTCACGTGGTTGAGCCGCTAATGATAGACAC
Question: Does B2 bind [2]?
Answer: Result: binds

B3: S5S8 sticky-end Holliday junction (structured_DNA)
DNA 1: ATGTTGATCGGGAGAGGTCGAACCCTCTTTGATATTTGTGACTTTCGGGGCAACTATTTCCTCGGCGACCACGTTCGGTGACGGACCT
DNA 2: AGGTCCGTCACCGAACGTGGTCGCCGAGGAAATAGTTGCCCCGACAGGAAGCTAACTAACATGAGACAAAAATGTGGCCTCGTTACGG
DNA 3: TCTCATGTTAGTTAGCTTCCTGACGCCTGGCCGTATCTTCGGCTTACTATCGCCTTCAGCATGACC
DNA 4: AGCCGAAGATACGGCCAGGCGTAAGTCACAAATATCAAAGAGGGTTCGACCTCTCCCGATCAACAT
Question: Does B3 bind ([1]; two 3' overhangs 22 nt (strands 2 and 3))?
Answer: Result: binds

B4: 88mer Holliday junction (structured_DNA)
DNA 1: CAGTTCCCTAAGACATCGACGTAGGACCTTGATCAACGCAGCTATGACTTCAGAGATTCTCTTATCTGGAAGCGTCCACGAACCGGCC
DNA 2: GGCCGGTTCGTGGACGCTTCCAGATAAGAGAATCTCTGAAGTCATTTGTACACTTTTCTATTCACGAGCAAAGCCTGGTATACTAGAA
DNA 3: TTCTAGTATACCAGGCTTTGCTCGTGAATAGAAAAGTGTACAAACCCACATTGCCATCGGGCGAAATGGGGTGTGCAGCGCATGCTCG
DNA 4: CGAGCATGCGCTGCACACCCCATTTCGCCCGATGGCAATGTGGGTAGCTGCGTTGATCAAGGTCCTACGTCGATGTCTTAGGGAACTG
Question: Does B4 bind [3]?
Answer: Result: binds

B5: 66mer Holliday junction (structured_DNA)
DNA 1: ATGCCGCATACAACAAGTGGGGGGATGAATAGGATGTACTGCCTTTTTTATCGACTGTCCAATATG
DNA 2: CATATTGGACAGTCGATAAAAAAGGCAGTACATACTTGGTCCACTCTGGTACAAGATGAGGTGGAT
DNA 3: ATCCACCTCATCTTGTACCAGAGTGGACCAAGTAGTGCGCGATTGACGTTCGAGGCGGACTCTCCT
DNA 4: AGGAGAGTCCGCCTCGAACGTCAATCGCGCACTCCTATTCATCCCCCCACTTGTTGTATGCGGCAT
Question: Does B5 bind [4]?
Answer: Result: binds
